# Patent US20110166062A1 (INDIANA UNIVERSITY RESEARCH AND TECHNOLOGY, published 2011)
# Bridges are numbered along the chain shown (N, C = ends). Where no end group is shown, it is not given here. [ ]: non-standard residue; d: D form. Aib = CC(C)(N)C(=O)O
# T1: GIP receptor (UniProt P48546 22-466)
# T1 sequence (looked up): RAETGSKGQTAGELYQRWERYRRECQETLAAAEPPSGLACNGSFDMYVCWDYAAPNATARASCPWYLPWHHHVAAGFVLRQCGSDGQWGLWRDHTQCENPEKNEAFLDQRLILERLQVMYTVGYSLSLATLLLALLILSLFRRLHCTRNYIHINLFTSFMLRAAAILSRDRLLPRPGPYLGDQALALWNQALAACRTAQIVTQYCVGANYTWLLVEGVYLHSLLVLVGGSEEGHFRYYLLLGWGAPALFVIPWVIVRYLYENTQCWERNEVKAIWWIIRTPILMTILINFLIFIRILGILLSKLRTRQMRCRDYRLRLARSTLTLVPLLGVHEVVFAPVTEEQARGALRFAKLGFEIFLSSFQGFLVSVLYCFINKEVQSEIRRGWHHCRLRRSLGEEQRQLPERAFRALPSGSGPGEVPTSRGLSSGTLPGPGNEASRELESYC
# What was measured:
# Assay in all cases: cell-based or functional assay
# [1] = biological target: T1, GIP receptor
# [2] = biological target: GLP-1 receptor (UniProt P43220 24-463, limits assumed)
# [3] = biological target: glucagon receptor (UniProt P47871 26-477, limits assumed)
# Sequence of glucagon receptor (P47871 26-477 limits assumed): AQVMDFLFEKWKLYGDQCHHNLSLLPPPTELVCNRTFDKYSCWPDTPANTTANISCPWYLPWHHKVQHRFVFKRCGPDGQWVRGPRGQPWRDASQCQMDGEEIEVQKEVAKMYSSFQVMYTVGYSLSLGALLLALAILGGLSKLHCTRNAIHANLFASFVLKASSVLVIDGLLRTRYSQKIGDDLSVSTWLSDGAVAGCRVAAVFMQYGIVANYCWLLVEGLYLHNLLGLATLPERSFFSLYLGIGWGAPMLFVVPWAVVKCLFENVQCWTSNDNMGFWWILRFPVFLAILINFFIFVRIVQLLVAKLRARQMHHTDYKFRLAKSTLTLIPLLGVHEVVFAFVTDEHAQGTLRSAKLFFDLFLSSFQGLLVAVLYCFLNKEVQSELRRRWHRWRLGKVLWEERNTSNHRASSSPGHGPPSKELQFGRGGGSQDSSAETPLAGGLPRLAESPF
Binder,EC50 [1] [nM],EC50 [2] [nM],relative activity [1] [%],EC50 [3] [nM],relative activity [3] [%],relative activity [2] [%]
HSQGTFTSDYSIYLDEIHQKEFIAWLMNT-NH2 (lactam 16-20; N-terminus assumed; SMILES CC[C@H](C)[C@H](NC(=O)[C@H](Cc1ccccc1)NC(=O)[C@H](CCC(=O)O)NC(=O)[C@@H]1CCCCNC(=O)CC[C@H](NC(=O)[C@H](CC(=O)O)NC(=O)[C@H](CC(C)C)NC(=O)[C@H](Cc2ccc(O)cc2)NC(=O)[C@@H](NC(=O)[C@H](CO)NC(=O)[C@H](Cc2ccc(O)cc2)NC(=O)[C@H](CC(=O)O)NC(=O)[C@H](CO)NC(=O)[C@@H](NC(=O)[C@H](Cc2ccccc2)NC(=O)[C@@H](NC(=O)CNC(=O)[C@H](CCC(N)=O)NC(=O)[C@H](CO)NC(=O)[C@@H](N)Cc2c[nH]cn2)[C@@H](C)O)[C@@H](C)O)[C@@H](C)CC)C(=O)N[C@@H]([C@@H](C)CC)C(=O)N[C@@H](Cc2c[nH]cn2)C(=O)N[C@@H](CCC(N)=O)C(=O)N1)C(=O)N[C@@H](C)C(=O)N[C@@H](Cc1c[nH]c2ccccc12)C(=O)N[C@@H](CC(C)C)C(=O)N[C@@H](CCSC)C(=O)N[C@@H](CC(N)=O)C(=O)N[C@H](C(N)=O)[C@@H](C)O) [mt-62],5.18,0.1,1.6,0.45,42.2,40
HSQGTFTSDYSKYLDEIHQKEFIAWLLAQ-NH2 [mt-66],–,0.13,–,2,13,38.5
"HSQGTFTSDYSIYLDEKHQKEFIAWLLAQ-NH2 (lactam 16-20, 17-21; N-terminus assumed; SMILES CC[C@H](C)[C@H](NC(=O)[C@H](Cc1ccccc1)NC(=O)[C@@H]1CCC(=O)NCCCC[C@@H]2NC(=O)[C@@H](NC(=O)[C@H](CC(=O)O)NC(=O)[C@H](CC(C)C)NC(=O)[C@H](Cc3ccc(O)cc3)NC(=O)[C@@H](NC(=O)[C@H](CO)NC(=O)[C@H](Cc3ccc(O)cc3)NC(=O)[C@H](CC(=O)O)NC(=O)[C@H](CO)NC(=O)[C@@H](NC(=O)[C@H](Cc3ccccc3)NC(=O)[C@@H](NC(=O)CNC(=O)[C@H](CCC(N)=O)NC(=O)[C@H](CO)NC(=O)[C@@H](N)Cc3c[nH]cn3)[C@@H](C)O)[C@@H](C)O)[C@@H](C)CC)CCC(=O)NCCCC[C@H](NC(=O)[C@H](CCC(N)=O)NC(=O)[C@H](Cc3c[nH]cn3)NC2=O)C(=O)N1)C(=O)N[C@@H](C)C(=O)N[C@@H](Cc1c[nH]c2ccccc12)C(=O)N[C@@H](CC(C)C)C(=O)N[C@@H](CC(C)C)C(=O)N[C@@H](C)C(=O)N[C@@H](CCC(N)=O)C(N)=O) [mt-93]",–,0.04,–,3,–,–
YAEGTFISDYSIAMDKIHQQDFVNWLLAQ-NH2 [mt-106],–,264,–,165,0.11,0.02
HAEGTFISDYSIAMDEIHQKDFVNWLLAQ-NH2 (lactam 16-20; N-terminus assumed; SMILES CC[C@H](C)[C@H](NC(=O)[C@H](CO)NC(=O)[C@H](Cc1ccc(O)cc1)NC(=O)[C@H](CC(=O)O)NC(=O)[C@H](CO)NC(=O)[C@@H](NC(=O)[C@H](Cc1ccccc1)NC(=O)[C@@H](NC(=O)CNC(=O)[C@H](CCC(=O)O)NC(=O)[C@H](C)NC(=O)[C@@H](N)Cc1c[nH]cn1)[C@@H](C)O)[C@@H](C)CC)C(=O)N[C@@H](C)C(=O)N[C@@H](CCSC)C(=O)N[C@@H](CC(=O)O)C(=O)N[C@H]1CCC(=O)NCCCC[C@@H](C(=O)N[C@@H](CC(=O)O)C(=O)N[C@@H](Cc2ccccc2)C(=O)N[C@H](C(=O)N[C@@H](CC(N)=O)C(=O)N[C@@H](Cc2c[nH]c3ccccc23)C(=O)N[C@@H](CC(C)C)C(=O)N[C@@H](CC(C)C)C(=O)N[C@@H](C)C(=O)N[C@@H](CCC(N)=O)C(N)=O)C(C)C)NC(=O)[C@H](CCC(N)=O)NC(=O)[C@H](Cc2c[nH]cn2)NC(=O)[C@H]([C@@H](C)CC)NC1=O) [mt-95],0.465,48.9,10.5,280,0.04,0.08
Y[Aib]EGTFISDYSIAMDKIHQQDFVCWLLAQKGKKNWLKHNITQ-NH2 [mt-102],–,98.4,–,799,0.02,0.06

# Second part, the binder after the results:
EC50 [1] [nM],EC50 [2] [nM],relative activity [1] [%],EC50 [3] [nM],relative activity [3] [%],relative activity [2] [%],Binder
0.852,0.126,–,–,–,–,YSQGTFTSDYSKYLDEQAAKEFIAWLLAGGPSSGAPPPS-NH2 (lactam 16-20; N-terminus assumed; SMILES CC[C@H](C)[C@H](NC(=O)[C@H](Cc1ccccc1)NC(=O)[C@H](CCC(=O)O)NC(=O)[C@@H]1CCCCNC(=O)CC[C@H](NC(=O)[C@H](CC(=O)O)NC(=O)[C@H](CC(C)C)NC(=O)[C@H](Cc2ccc(O)cc2)NC(=O)[C@H](CCCCN)NC(=O)[C@H](CO)NC(=O)[C@H](Cc2ccc(O)cc2)NC(=O)[C@H](CC(=O)O)NC(=O)[C@H](CO)NC(=O)[C@@H](NC(=O)[C@H](Cc2ccccc2)NC(=O)[C@@H](NC(=O)CNC(=O)[C@H](CCC(N)=O)NC(=O)[C@H](CO)NC(=O)[C@@H](N)Cc2ccc(O)cc2)[C@@H](C)O)[C@@H](C)O)C(=O)N[C@@H](CCC(N)=O)C(=O)N[C@@H](C)C(=O)N[C@@H](C)C(=O)N1)C(=O)N[C@@H](C)C(=O)N[C@@H](Cc1c[nH]c2ccccc12)C(=O)N[C@@H](CC(C)C)C(=O)N[C@@H](CC(C)C)C(=O)N[C@@H](C)C(=O)NCC(=O)NCC(=O)N1CCC[C@H]1C(=O)N[C@@H](CO)C(=O)N[C@@H](CO)C(=O)NCC(=O)N[C@@H](C)C(=O)N1CCC[C@H]1C(=O)N1CCC[C@H]1C(=O)N1CCC[C@H]1C(=O)N[C@@H](CO)C(N)=O) [mt-151]
0.665,0.025,–,–,–,–,YSQGTFTSDYSKYLDEQAAKEFVNWLLAGGPSSGAPPPS-NH2 (lactam 12-16; N-terminus assumed; SMILES CC(C)C[C@H](NC(=O)[C@H](CC(C)C)NC(=O)[C@H](Cc1c[nH]c2ccccc12)NC(=O)[C@H](CC(N)=O)NC(=O)[C@@H](NC(=O)[C@H](Cc1ccccc1)NC(=O)[C@H](CCC(=O)O)NC(=O)[C@H](CCCCN)NC(=O)[C@H](C)NC(=O)[C@H](C)NC(=O)[C@H](CCC(N)=O)NC(=O)[C@@H]1CCC(=O)NCCCC[C@H](NC(=O)[C@H](CO)NC(=O)[C@H](Cc2ccc(O)cc2)NC(=O)[C@H](CC(=O)O)NC(=O)[C@H](CO)NC(=O)[C@@H](NC(=O)[C@H](Cc2ccccc2)NC(=O)[C@@H](NC(=O)CNC(=O)[C@H](CCC(N)=O)NC(=O)[C@H](CO)NC(=O)[C@@H](N)Cc2ccc(O)cc2)[C@@H](C)O)[C@@H](C)O)C(=O)N[C@@H](Cc2ccc(O)cc2)C(=O)N[C@@H](CC(C)C)C(=O)N[C@@H](CC(=O)O)C(=O)N1)C(C)C)C(=O)N[C@@H](C)C(=O)NCC(=O)NCC(=O)N1CCC[C@H]1C(=O)N[C@@H](CO)C(=O)N[C@@H](CO)C(=O)NCC(=O)N[C@@H](C)C(=O)N1CCC[C@H]1C(=O)N1CCC[C@H]1C(=O)N1CCC[C@H]1C(=O)N[C@@H](CO)C(N)=O) [mt-155]
0.391,13.1,–,–,–,–,YAQGTFISDYSKYLDEQAAKEFVNWLLAGGPSSGAPPPS-NH2 (lactam 16-20; N-terminus assumed; SMILES CC[C@H](C)[C@H](NC(=O)[C@H](Cc1ccccc1)NC(=O)[C@@H](NC(=O)CNC(=O)[C@H](CCC(N)=O)NC(=O)[C@H](C)NC(=O)[C@@H](N)Cc1ccc(O)cc1)[C@@H](C)O)C(=O)N[C@@H](CO)C(=O)N[C@@H](CC(=O)O)C(=O)N[C@@H](Cc1ccc(O)cc1)C(=O)N[C@@H](CO)C(=O)N[C@@H](CCCCN)C(=O)N[C@@H](Cc1ccc(O)cc1)C(=O)N[C@@H](CC(C)C)C(=O)N[C@@H](CC(=O)O)C(=O)N[C@H]1CCC(=O)NCCCC[C@@H](C(=O)N[C@@H](CCC(=O)O)C(=O)N[C@@H](Cc2ccccc2)C(=O)N[C@H](C(=O)N[C@@H](CC(N)=O)C(=O)N[C@@H](Cc2c[nH]c3ccccc23)C(=O)N[C@@H](CC(C)C)C(=O)N[C@@H](CC(C)C)C(=O)N[C@@H](C)C(=O)NCC(=O)NCC(=O)N2CCC[C@H]2C(=O)N[C@@H](CO)C(=O)N[C@@H](CO)C(=O)NCC(=O)N[C@@H](C)C(=O)N2CCC[C@H]2C(=O)N2CCC[C@H]2C(=O)N2CCC[C@H]2C(=O)N[C@@H](CO)C(N)=O)C(C)C)NC(=O)[C@H](C)NC(=O)[C@H](C)NC(=O)[C@H](CCC(N)=O)NC1=O) [mt-146]
